Test results reported in paper PMC4350099.

Molecular target: 14-3-3ζ (UniProt P63104)
Experiment: GST pull-down from co-transfected cells
Details: reference: wild type

Substance: Notch4 (Notch4-ICD; Notch4-ΔhN4) ICD (from UniProt Q99466) S1495A
- binding against the reference (sites S1495): weaker

Substance: Notch4 (Notch4-ICD; Notch4-ΔhN4) ICD (from UniProt Q99466) 4XA (S1495/1847/1865/1917A)
- binding against the reference (sites S1495,S1847,S1865,S1917): lost

Substance: Notch4 (Notch4-ICD; Notch4-ΔhN4) ICD (from UniProt Q99466) S1917A
- binding against the reference (sites S1917): weaker

Substance: Notch4 (Notch4-ICD; Notch4-ΔhN4) ICD (from UniProt Q99466) S1847A
- binding against the reference (sites S1847): weaker

Substance: Notch4 (Notch4-ICD; Notch4-ΔhN4) ICD (from UniProt Q99466) S1865A
- binding against the reference (sites S1865): weaker
